Laboratory results taken from patent US20250313612A1 (Adimab, published 2025).
Substitutions are numbered along the chain they refer to.

B1: ADI-14478 (antibody, V domains shown)
VH: EVQLVESGGGLVKPGGSLRLSCAASGFTFSDYYMSWIRQAPGKGLEWVSYISISSSYTDYADSVKGRFTISRDNAKNSLYLQMNSLRAEDTAVYYCARDQRDQAVAGRWFDPWGQGTLVTVSS
VL: QSVVTQPPSVSGAPGQRVTISCTGSSSNIGAGFDVHWYQQVPGTAPKLLIYANTNRPSGVPDRFSGSKSGTSASLAITGLKAEDEADYYCQSYDNSLSGSAVFGGGTKVTVL
B2: ADI-14462 (antibody, V domains shown)
VH: QVQLVQSGGGVVQPGGSLRLSCAAYGLTFRAYGMHWVRQAPGKGLEWVAVSWYDGTNEVYADSVKGRFRISRDDSRSTLYLQMNSLRGEDTAVYYCATERMWEENSSSFGWWGRGTLVTVSS
VL: QAVLTQPASVSGSPGQSITISCTGSSSDVGGSNFVSWYQQHPGKAPKLMVYDVNHRPSGISNRFSGSKSGNTASLTISGLQAEDEADYYCTSYTSRSSYVFGSGTKVTVL
B3: ADI-14456 (antibody, V domains shown)
VH: QVQLVQSGAEVKKPGASVKVSCEASEYSFSGDYVHWVRQAPGQGLEWMGWIKAVNGGANYAQKFHGRVTMTTDSSKSTVYLEMSRLTPADTAIYFCAKDRAASVHVPAGAFDLWGQGTLVTVSS
VL: DIQMTQSPSSLSAYVGDRVSITCRASQSIDNFLNWYRQRPGKAPELLIYAASTLQGGVPSRFSGSGSGTHFTLTISSLQPEDFATYYCQQSFTIPSITFGQGTRLEIK
B4: ADI-14464 (antibody, V domains shown)
VH: B3 VH with E26A, K63R, K76R, M83L, S84T, A89D, I93V, A110E
VL: B3 VL with M4V, Y14S, D30S, F92Y
B5: ADI-14465 (antibody, V domains shown)
VH: QVQLLESGAGLLKPSETLSLTCSLSGGSFRDFYWAWIRQAPGRGLEWIGDINDGGNTNHSPSLKSRAILSIDASKRQFSLRLTSVTAADTAVYYCARQRLEHTASGYYMDVWGNGTTVTVSS
VL: QSVLTQPPSVSVDPGETATITCGGANIGSKNVYWYQQRPGQAPVLVVYDDIDRPAGIPDRFTDSSSGNTVTLTIYSVEAVDEADYFCQVWDNSSDQPVFGGGTKLTVL
B6: ADI-14463 (antibody, V domains shown)
VH: QVQLVQSGTEVKKPGASVKVSCKASGYIFDHFAITWVRQAPGQGPEWMGWISAYNGRTEDSGKFPGRLTLTTDPATRTAFLELRGLTPDDTAVYYCARDVPVMGAAFLDYWGQGTLVTVSS
VL: EIVLTQSPLSLPVTVGQPASISCRSGQSLEFSDGNTYLTWFHQRPGQSPRRLIYRGSYRDSGVPDRFRGSGSGTTFTLTISRVEAEDVGIYFCMQGTHWPPTFGQGTKVDIK
B7: ADI-14474 (antibody, V domains shown)
VH: QVQLVQSGPEVKKPGASVTISCQASGYIFNHYSITWVRQAPGQGTEWMGWISAYHGKTEYSGKFHGRVTLTTDTGTRTAFLELRDLTSDDTAIYYCARDVPVMGAAFLDYWGQGTLVTVSS
VL: B6 VL with V15L, H42Q, Y54F, D65E, R68S, T75S, V109L, D110E
B8: ADI-14441 (antibody, V domains shown)
VH: QVQLVQSGAEVKKPGSSVKISCKASGGTFNSQAIHWVRQAPGQDLEWMGNIIPGFGSPNSAQNFQGRVTFIADDSTGAAYMDLSSLKSEDTAVYYCATAGWFGESVHLDSWGQGTLVTVSS
VL: not shown
B9: ADI-14479 (antibody, V domains shown)
VH: QVQLVQSGSEVKQPGASVKVSCKASGYTFSAYHLHWVRQAPGQGLQWLGRINPNSGATSVAHNFQGRVTLTTDTSISTAYMELSSLTSDDSAVYYCARTMWRWLVEGGFENWGQGTLVTVSS
VL: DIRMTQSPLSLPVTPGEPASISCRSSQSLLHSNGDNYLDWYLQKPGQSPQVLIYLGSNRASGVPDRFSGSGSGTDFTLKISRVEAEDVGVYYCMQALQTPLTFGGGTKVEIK
B10: ADI-14448 (antibody, V domains shown)
VH: EVQLVESGGGLVKPGGSLRLSCAASGSSFRYSYMSWVRQAPGKGLQWVASISPSSTYTDYADSVKGRSTISRDHDKISLQVNSLRGDDTAVYYCVRHMNLVMGPFAFDIWGRGTMVTVSS
VL: QSVVTQPPSLSGAPGQRITISCTGSSSNIGAGYDVNWYQQLPGTAPKLLIYAKTNRPSGVPERFSGSESGTSASLAITGLQPEDEADYYCQSYDRIGMYVFGTGTKLTVL
B11: ADI-14487 (antibody, V domains shown)
VH: QVQLVQSGAEVKKPGASVRVSCKASGYTFSSYYIHWVRQAPGQGPEWLGWINPKSGDTIYSYKFQGRVTLTRETSITTAYMELTSLRSDDTAVYYCARVTWQWLVLGGFDYWGQGTLVTVSS
VL: DIVLTQSPLSLPVTPGEPASISCRSSLSLLHSNGDNYLDWYLQKPGQSPQLLIYLGSNRASGVPDRFSGSGSGTDFTLKISRVEAEDVGVYYCMQALHTPLTFGGGTKLEIK
B12: ADI-14480 (antibody, V domains shown)
VH: QVQLVQSGAEVKKPGSSMSISCRASGGSFNNQAIHWIRQAPGEGLEWMGNIIPNFGSQNYAPEFVGRVSFNADASAGTAYMDLSDLTSQDTAVYYCATAGWFGELVRFDSWGQGTLVTVSS
VL: DIVMTQSPATLSVSPGGRATLSCRASETITTNLAWYQQKPGQAPRLLIYGASTRATGIPARFSGSGSGTEFTLTINSLQSEDFAVYYCQQYNNWPPLTFGGGTKLEIK
B13: ADI-14451 (antibody, V domains shown)
VH: EVQLVESGAEVRKPGASVKVSCKASGYIFINYYIHWVRQAPGQGLEWMGWINPNSGASNHAQTFEGRITMTTDTSSNTAYMELSRLREDDTAVYYCARSQQLLVITDYSLDYWGLGTLVTVSS
VL: SSELTQDPAVSVALGQTVRITCHGDTLRNYYPAWYQQKPGQAPVLVVSDRNTRPSGIPDRFSVSTSGNTASLTITGAQAEDEGDYYCNCRDSSGHRLVFGGGTKLTVL
B14: ADI-14520 (antibody, V domains shown)
VH: QVQLQQWGAGLVKPSETLSLTCAVYGGSFSGYQWHWFRQPPGKGLEWIGEINHSEITHYNASLKSRVTLSIDTSKNQFSLNLTSVTAADTAVYYCARASSGSYNFEYWFDPWGQGTLVTVSS
VL: QSVLTQPPSVSVAPGKTAWLTCGGNNIGSKRVHWYRQKPGQAPVLVVYDDYDRPSGTPERVSGSNSGNTATLTISRVEDGDEGDYYCQVWDDPSDHAVFGGGTKLTVL
B15: ADI-14482 (antibody, V domains shown)
VH: B14 VH with Y25S, S30R, H35N, S54G, I56Y, T68S, V92M, Y94F, S102T
VL: B14 VL with Q1S, S2Y, S29N, R36Q, D52G, P58S, D79A, G83A, D84E, K104Q
B16: ADI-14490 (antibody, V domains shown)
VH: QVQLVQSGGGVVQPGRSLRLSCAASGFTFSNYGMHWVRQAPGKGLEWVAVIWYDGSNKYYADSVKGRFTISRDNSKNTVYLQMNSLRADDTAVYYCARDAIFGSGPNWFDPWGQGTLVTVSS
VL: QSVLTQPPSVSGAPGQRVTISCTGSSSNIGAGYDVHWYQQLPGTAPKLLIYGSSNRPSGVPDRFSGSKSGTSASLAITGLQAEDEADYYCQSYESSLRGWVFGGGTKVTVL
B17: ADI-14521 (antibody, V domains shown)
VH: QVQLVQSGTEVKKPGASVKVSCLTSGYTFTHFGISWVRQAPGQGLEWMGWFSAYNGNTKYAQKFQGRITLTIDTSTSIAYLELRSLRSDDTAVYYCARDPPSLTAAGTLDYWGQGTLVTVSS
VL: DIRLTQSPLSLPVTLGQPASISCSSNQSLVYSDGNTYLSWFQQRPGQSPRRLIYKVSDRDSGVPDRFSGSGSGTDFTLKISRVEAEDVGVYYCMQATDWPRTFGQGTKVEIK
B18: ADI-14455 (antibody, V domains shown)
VH: QVQLVQSGAEVKKPGASVKVSCKASGYTFTSYGTSWVRQAPGQGLEWMGWISAYNGNTNYAQNLQGRVTMTTDTSTSTSYMELRSLRSDDTAVYYCARDVPVIAAGTMDYWGQGTLVTVSS
VL: B17 VL with R3V, L4M, S7T, S24R, N26S, S39N, D58N, A96G, T97P, D98H
B19: ADI-14467 (antibody, V domains shown)
VH: EVQLLESGSEVKKPGTSVKVSCETSGYIFTNYAISWVRQAPGQGLEWLGWISGYNGQTYYAQKVQGRLTLTTDTSTMTAYMDLTSLRSDDTAIYYCVRDVPVISGASTMDYWGQGTLVTVSS
VL: B17 VL with R3V, L4M, L15H, S24R, N26S, Q43L, D58N, D98Q
B20: ADI-14488 (antibody, V domains shown)
VH: EVQLVESGGGLVQPGGSLKLSCTSSGLAFSGSAIHWVRQASGKGLEWVGRIRSKPNSYATEYAASVKGRFTISRDDSQNTAYLQMNSLKAEDTALYYCTLGYCSGDSCSSLRDYWGQGTLVTVSS
VL: QSALIQPASVSGSPGQSITISCTGTSSDVGGYNYVSWYQQHPGKAPKLMIYDVSNRPSGVSNRFSGSKSGNTASLTISGLQAEDEADYYCSSYTSSSTLVFGGGTKVTVL

What follows are binders tested against RSV F protein of recombinant mKate-RSV, subtype A (strain A2) (Respiratory syncytial virus subtype A …, UniProt P03420 26-574) (assay: cell-based or functional assay).

Binder	Neut IC50 subtype A
B1	0.163 µg/mL
B2	2.71 µg/mL
B3	> 10 µg/mL
B4	> 10 µg/mL
B5	0.431 µg/mL
B6	0.009 µg/mL
B7	0.019 µg/mL
B8	> 10 µg/mL
B9	4.09 µg/mL
B10	0.043 µg/mL
B11	> 10 µg/mL
B12	> 10 µg/mL
B13	0.02 µg/mL
B14	0.029 µg/mL
B15	0.024 µg/mL
B16	1.02 µg/mL
B17	0.083 µg/mL
B18	0.012 µg/mL
B19	0.06 µg/mL
B20	> 10 µg/mL

These binders were tested against RSV F protein of recombinant mKate-RSV, subtype B (18537) (Respiratory syncytial virus subtype B …, UniProt P13843 26-574) (assay: cell-based or functional assay).

Binder	Neut IC50 subtype B
B1	0.057 µg/mL
B2	2.63 µg/mL
B3	0.372 µg/mL
B4	0.161 µg/mL
B5	0.124 µg/mL
B6	0.036 µg/mL
B7	0.016 µg/mL
B8	3.92 µg/mL
B9	22.7 µg/mL
B10	0.066 µg/mL
B11	> 10 µg/mL
B12	2.76 µg/mL
B13	0.06 µg/mL
B14	0.045 µg/mL
B15	0.031 µg/mL
B16	0.113 µg/mL
B17	0.123 µg/mL
B18	0.036 µg/mL
B19	0.065 µg/mL
B20	> 10 µg/mL
